Measured values as given in paper PMC10710473, “The DNA glycosylase NEIL2 is protective during SARS-CoV-2 infection”.

Experiments:
NEIL2 (rNEIL2) [1] = biological target: T1, NEIL2 (rNEIL2) (UniProt Q969S2 1-332); assay: EMSA; 1 nM RNA, compact band at 75 nM NEIL2; Kd not measurable (aggregates); settings: protein: recombinant; tags: C-terminal 6xHis; chain copies: 12; label: 32P end label; folded; partly aggregates
T1 sequence: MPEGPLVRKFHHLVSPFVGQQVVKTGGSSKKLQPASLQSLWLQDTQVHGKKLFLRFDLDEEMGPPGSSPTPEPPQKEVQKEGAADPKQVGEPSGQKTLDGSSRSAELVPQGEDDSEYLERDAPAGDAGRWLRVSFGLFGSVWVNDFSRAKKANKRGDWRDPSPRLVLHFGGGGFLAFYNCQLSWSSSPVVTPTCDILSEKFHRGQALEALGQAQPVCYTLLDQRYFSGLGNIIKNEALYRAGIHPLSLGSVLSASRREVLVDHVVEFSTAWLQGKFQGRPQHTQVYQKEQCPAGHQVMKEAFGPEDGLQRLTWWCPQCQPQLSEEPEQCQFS

NEIL2 (rNEIL2) [2] = biological target: T1, NEIL2 (rNEIL2); assay: EMSA; settings: protein: recombinant; tags: C-terminal 6xHis; chain copies: 12; label: 32P end label; natively folded, minor misfolded band
NEIL2 (rNEIL2) [3] = biological target: T1, NEIL2 (rNEIL2); assay: EMSA; 1 nM RNA, no yeast tRNA; Hill 2.428; settings: protein: recombinant; tags: C-terminal 6xHis; label: 32P end label

B1: CoV-2 3'-UTR RNA (full length, 200 nt) (structured_RNA)
RNA: CAAUCUUUAAUCAGUGUGUAACAUUAGGGAGGACUUGAAAGAGCCACCACAUUUUCACCGAGGCCACGCGGAGUACGAUCGAGUGUACAGUGAACAAUGCUAGGGAGAGCUGCCUAUAUGGAAGAGCCCUAAUGUGUAAAAUUAAUUUUAGUAGUGCUAUCCCCAUGUGAUUUUAAUAGCUUCUUAGGAGAAUGACAAAA
binding result (NEIL2 (rNEIL2) [1]): binds

B2: CoV-2 5'-UTR RNA (full length, 297 nt) (structured_RNA)
RNA: AUUAAAGGUUUAUACCUUCCCAGGUAACAAACCAACCAACUUUCGAUCUCUUGUAGAUCUGUUCUCUAAACGAACUUUAAAAUCUGUGUGGCUGUCACUCGGCUGCAUGCUUAGUGCACUCACGCAGUAUAAUUAAUAACUAAUUACUGUCGUUGACAGGACACGAGUAACUCGUCUAUCUUCUGCAGGCUGCUUACGGUUUCGUCCGUGUUGCAGCCGAUCAUCAGCACAUCUAGGUUUUGUCCGGGUGUGACCGAAAGGUAAGAUGGAGAGCCUUGUCCCUGGUUUCAACGAGAA
Kd (NEIL2 (rNEIL2) [2]): 44.2 nM

UCCCCAUGUGAUUUUAAUAGCUUCUUAGGAGAAUGACA (mixed, DNA bases may be present) [CoV-2 3'-UTR ZnF-site (38-mer)]
Kd (NEIL2 (rNEIL2) [3]): 77.2 nM
